Patent publication US20230381228A1 (University of California, published 2023)

B1: anti-DPP6 nanobody 4hD29 (VHH)
VHH: QVQLQESGGGLVQPGGSLRLSCAASGFTFSSNYMTWVRQAPGKGPEWVSGINPDGSSTYYADSVKGRFTISRDNAKNTLYLQMNSLKSEDTALYKCATGAAPRIPTTLRGQGTQVTVSS
B2: anti-DPP6 nanobody 2hD123-A24V (VHH)
VHH: QVQLQESGGGSVQAGGSLRLSCAVSGSSYSRFRMGWFRQVPGKEREGVAAIYRSDGRTYYADSVKGRFTISQDNTKNTVYLQMNSLKPEDTAMYYCAAGAYSSYLMDANFAYWGQGTQVTVSS
B3: anti-DPP6 nanobody 2hD6 (VHH)
VHH: QVQLQESGGGSVQAGGSLRLSCAASSYTYSYSCMAWFRQAPGKERERVASIHTGTGTANYADSAKGRFTISQDIAANTVYLQMNSLKLEDTAMYYCAARPGSAALRCTTDYSKPHDFTYWGQGTQVTVSS
B4: anti-DPP6 nanobody 2hD1 (VHH)
VHH: QVQLQESGGGLVQPGGSLRLSCAASGYPYGYTFSSYCMRWFRQAPGKDREGVARFERNGLTTYYDDSVKGRFTISQDNVKNTVYLQMNSLKPEDTATYYCAAAPKQLRTCGDYNYWGQGTQVTVSS

target: T1, dipeptidyl aminopeptidase-like protein 6 (DPP6), human isoform 1 (human, UniProt P42658 117-865, limits assumed); experiment: affinity, method not stated (Table 1-4)
T1 construct: also called DPPX; DPP6 L
T1 sequence (P42658 117-865 limits assumed): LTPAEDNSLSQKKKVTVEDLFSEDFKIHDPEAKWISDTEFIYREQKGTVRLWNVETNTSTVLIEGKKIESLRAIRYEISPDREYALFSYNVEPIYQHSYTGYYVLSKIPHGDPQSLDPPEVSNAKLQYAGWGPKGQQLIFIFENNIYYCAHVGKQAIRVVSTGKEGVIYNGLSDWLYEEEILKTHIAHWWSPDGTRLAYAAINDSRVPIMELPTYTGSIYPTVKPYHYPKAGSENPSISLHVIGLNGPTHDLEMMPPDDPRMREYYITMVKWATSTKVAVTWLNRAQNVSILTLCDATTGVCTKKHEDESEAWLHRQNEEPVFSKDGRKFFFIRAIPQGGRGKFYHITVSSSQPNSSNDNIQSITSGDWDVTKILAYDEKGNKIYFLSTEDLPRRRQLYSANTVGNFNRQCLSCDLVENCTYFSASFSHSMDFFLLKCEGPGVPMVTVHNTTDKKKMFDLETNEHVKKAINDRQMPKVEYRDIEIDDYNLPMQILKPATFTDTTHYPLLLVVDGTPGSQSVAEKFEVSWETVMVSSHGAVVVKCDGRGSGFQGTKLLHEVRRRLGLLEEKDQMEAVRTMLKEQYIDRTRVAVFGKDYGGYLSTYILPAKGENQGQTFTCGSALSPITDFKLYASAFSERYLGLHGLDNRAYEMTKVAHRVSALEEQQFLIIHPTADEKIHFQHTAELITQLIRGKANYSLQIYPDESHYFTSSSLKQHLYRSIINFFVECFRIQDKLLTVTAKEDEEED

B1 was tested. Which Kd did it give?
The Kd was 1.2 nM.

For B2, which Kd is on record?
Its Kd is 27.2 nM.

For B3, which Kd is on record?
The Kd was 13 nM.

B4 was tested. Which Kd did it give?
Its Kd is 69 nM.
